Four molecules from patent US8597922B2, “Methods and compositions for producing olefins” (LS9, Inc., priority 2007, dated 2013) can be followed below.

Data set [1] deals with E. coli C41 ΔfadE. The class given is cell-based. As to the method: Genomic DNA encoding C. efficiens YS-134 (DSMZ44549) orfCE2459 (SEQ ID NO:6) was cloned into the NcoI and EcoRI sites of vector OP-80 (pCL1920 derivative) under the control of the Ptrc promoter. The resulting construct was then transformed into E. coli C41 ΔfadE.
The cells were grown at 37° C. in M9 minimal media supplemented with 20 μg/mL uracil, 1% glucose (w/v), and 100 μg/mL spectinomycin. When the culture reached an OD600 of 0.8 to 1.0, it was induced with 1 mM IPTG supplemented with 0.5 mM delta-aminolaevulinic acid (heme biosynthesis precursor), and 0.05% stearic acid (as a substrate for orfCE2459). The temperature was shifted to 25° C. and cells were allowed to grow for an additional 18-20 h Cells from 1 mL of culture were resuspended with 100 μL of methanol, sonicated for 30 min, and extracted with 300 μL of ethyl acetate. After vortexing for 15 min, 300 μL of water was added, and the mixture was vortexed for another 15 min before centrifugation at 15,000 rpm for 10 min. The solvent layer was analyzed by GC-MS.
Genomic DNA encoding Kokuria rhizophila DC2201 orfKRH21570 (SEQ ID NO:8), which was codon optimized (SEQ ID NO:9) for expression in E. coli, was cloned into the NdeI and XhoI sites of vector OP-183 (pACYC177 derivative) under the control of the Ptrc promoter. The resulting construct was then transformed into E. coli C41 ΔfadE. The cells were grown, extracted, and analyzed as in described in Example 7.
The genomic DNA encoding Bacillus subtilis fatty acid hydroxylase, Cyp152A1 (SEQ ID NO:13) or P450Bsβ, was cloned into the NdeI and XhoI sites of vector OP-183 (pACYC177 derivative) under the control of the Ptrc promoter. The construct was used as a template to introduce a mutation at position 85 changing the Glu to His using the following primer: GTTAATGCGATTCAcGGAATGGATGGC. The resulting constructs were then transformed into E. coli C41 (ΔfadE). The cells were grown at 37° C. in M9 minimal media supplemented with 20 μg/mL uracil, 1% glucose (w/v), and 100 μg/mL carbenicillin. When the culture reached OD600 of 0.8-1.0, it was induced with 1 mM IPTG; supplemented with 0.5 mM delta-aminolaevulinic acid (heme biosynthesis precursor) and 0.05% stearic acid (as a substrate for Bsb). The temperature was shifted down to 25° C. and cells were allowed to grow for an additional 18-20 h. Cells from 1 mL of culture was resuspended with 100 μL of methanol, sonicated for 30 min, and extracted with 300 μL of ethyl acetate. After vortexing the extract for 15 min, 300 μL of water was added, vortexed for another 15 minutes before centrifugation at 15,000 rpm for 10 minutes. The solvent layer was analyzed by GC-MS.

The nature of data set [2]: In vitro α-olefin synthesis by purified His-tagged protein with hydrogen peroxide. The class given is biochemical. The following applies: 200 μL purified protein, 200 μM hydrogen peroxide, 200 μM potassium hexadecanoate, room temperature overnight. How it is done:
E. coli C41 DE3 (ΔfadE) cells were transformed with pET15b-orfKRH21570 using routine transformation techniques. Protein expression was carried out by first inoculating 5 mL of LB broth supplemented with 100 mg/L carbenicillin with a colony of the E. coli strain which was followed by shaking the cells overnight at 37° C. to produce a starter culture. This starter culture was used to inoculate 0.5 L of LB media supplemented with 100 mg/L of carbenicillin. The culture was shaken at 37° C. until an OD600 value of 0.6 was reached, after which it was induced with 1 mM IPTG and 0.5 mM delta-aminolaevulinic acid. The culture was then shaken at 25° C. for approximately 18 h. The protein was purified as described in Example 12.
To assay the activity of ORF_KRH21570, 200 μL of purified protein was incubated with 200 μM of hydrogen peroxide and 200 μM of potassium hexadecanoate. As a negative control, the same reaction was conducted, but without the addition of either purified protein (100 mM sodium phosphate pH 7.2 was used in its place) or free fatty acid. The reactions were performed in duplicates and incubated at room temperature overnight. […] Trimethylanilinium hydroxide was added to the ethyl acetate layer at a 1:1 ratio and the extracts analyzed by GC/MS using the MAR_splitless_short method. […]

A short description of data set [3]: Specific activity of α-olefin and α/β-hydroxy fatty acid formation by purified enzymes. The format is biochemical. The note with it: for specific activity for 1-pentadecene formation: 500 μM H2O2, 200 μM potassium hexadecanoate, pH 7.2, room temperature, comparison between enzymes. How it is done:
The specific activity of α-olefin formation as well as α-(2) and β-(3)hydroxy fatty acid formation were determined for ORF880, CYP152A1, and CYP152A1 Q85H (see Examples 12 and 16). An E. coli BL21 strain (DE3) (Invitrogen) was transformed with either pET15b-orf 880, pET15b-cyp152A1, and pET15b-cyp152A1 Q85H using routine chemical transformation techniques. Protein expression was carried out by first inoculating a colony of the E. coli strain in 5 mL of LB media supplemented with 100 mg/L of carbenicillin and shaken overnight at 37° C. to produce a starter culture. This starter culture was used to inoculate 0.5 L of LB media supplemented with 100 mg/L of carbenicillin. The culture was shaken at 37° C. until an OD600 value of 0.6 was reached. The culture was placed on ice for 10 min before IPTG was added to a final concentration of 250 μM. The culture was shaken at 25° C. for approximately 18 h, and then centrifuged at 3,700 rpm for 20 min at 4° C. The pellet was then resuspended in 10 mL of buffer containing 100 mM sodium phosphate buffer at pH 7.2 supplemented with Bacterial ProteaseArrest (GBiosciences). The cells were then sonicated at 12 W on ice for 9 sec with 1.5 sec of sonication followed by 1.5 sec of rest. This procedure was repeated 5 times with one min intervals between each sonication cycle. The cell free extract was centrifuged at 10,000 rpm for 30 min at 4° C. 5 mL of Ni-NTA (Qiagen) was added to the supernatant, and the mixture was gently stirred at 4° C. The slurry was passed over a column removing the resin from the lysate. The resin was then washed with 30 mL of buffer containing 100 mM sodium phosphate buffer at pH 7.2 plus 30 mM imidazole. Finally, the protein was eluted with 15 mL of 100 mM sodium phosphate buffer at pH 7.2 plus 250 mM imidazole. The protein solution was dialyzed with 200 volumes of 100 mM sodium phosphate buffer at pH 7.2 with 20% glycerol. Protein concentration was determined using the Bradford assay (Biorad). 578 μg/mL of ORF880, 865 μg/mL of CYP152A1, and 653 μg/mL of CYP152A1 Q85H protein was obtained.
To determine the specific activity with potassium hexadecanoate, the following reactions were set-up where each time point consisted of 500 μL. Each reaction contained of 500 μM H2O2, 200 μM of potassium hexadecanoate, 100 mM sodium phosphate buffer at pH 7.2, and protein at the following concentrations: ORF880-0.23 or 0.46 μM; CYP152A1-8.65, 17.3, or 34.6 μM; CYP152A1 Q85H-6.53, 13.06, or 26.12 μM. The reactions were carried out at room temperature and time points were taken at 0, 1, 3, 5, 7, 10, 14, and 20 minutes. Reactions were quenched with 50 μL of 12 M HCl and then extracted with 200 μL of ethyl acetate. 50 μL of this extract was then reacted with 50 μL N,O-Bis(trimethylsilyl)trifluoroacetamide with trimethyl-chlorosilane (Aldrich). Samples were analyzed using GC/MS using the following parameters: run time: 20 min; column: HP-5-MS Part No. 190915-433E (length of 30 meters; I.D.: 0.25 mm narrowbore; film: 0.25 μM); inject: 1 μL Agilent 6850 inlet; inlet: 300° C. splitless; carrier gas: helium; flow: 1.3 mL/min; oven temp: 100° C. hold 5 min, 320° C. at 20° C./min, 320° C. hold 5 min; det: Agilent 5975B VL MSD; det. temp: 300° C.; scan: 50-500 M/Z. Calibration curves were generated using 1-pentadecene, α(2)-hydroxyhexadecanoic acid, and β(3)-hydroxyhexadecanoic acid dissolved in ethyl acetate and derivatized as described herein.
Based upon this analysis, product formation was determined to be linear within the first three minutes. The specific activities for each enzyme concentration in the linear range were averaged for a given reaction (e.g., decarboxylation, α-hydroxylation, or β-hydroxylation). FIG. 21 summarizes the results. The specific activity for 1-pentadecene formation was similar for ORF880 and CYP152A1. Mutating the glutamine 85 residue to a histidine increased the specific activity of 1-pentadecene formation (i.e., increased fatty acid decarboxylase activity). […]

Where [4] appears, read: with 0.05% stearic acid feeding.
[5] abbreviates: compared with the wild-type version of CYP152A1.

Where a chain is given by its changes, count along the chain named. In names and notes the source's numbering stands. Like-named read-outs stand apart in the source and are kept apart here.

B1: orf_KRH21570: ORF880 homolog P450 enzyme from Kokuria rhizophila DC2201, YP_001856010 (protein, listed as Kokuria rhizophila)
chain: MTSPFGQTRSEQGPSLLRSGYLFASRARRRAGLSSDSGCPVRMPLLGKQTVLVRGEEGVKLFYDTSRVRRDGAMPGVVQGPLFGAGAVHGLDGEAHRVRKNQLADMAYEDERVAAYKPFVAEELENLVARWKDGDNVYDSTAIAFGRASFRWAGLQWGVPEMDRWARRMSRLLDTFGRPATHLVSRLDRIALDRRFAALIKDVRAGKVNAPEDSVLAHMAALVDEHGELVDAKTAGIELQNLTRPNVAVARFAAFAATALVEHPEWVERIRAASEQRGGTLLDVPEAVAFAQEVRRVYPFVPMLPAEVTQDTEIQGCPVHKGERVVLDILGTNTDPTSWDRAATFDPERFLGVEDAEAITTFIPQGGAEVRTGHRCPGEKIAVTSLSAAVVALCRPEVQLPGDQDDLTFSWTHMLTRPVTGVRVRTTR
Regarding B1, the α-olefin produced in data set [1] (setting [4]) is listed as 1-heptadecene; in data set [1] (without stearic acid feeding, grown on glucose), 1-heptadecadiene. Also, the “α-olefin formed from hexadecanoic acid” value in data set [2] is listed as 1-pentadecene.

B2: CYP152A1: Bacillus subtilis fatty acid hydroxylase, NP_388092 (protein, listed as Bacillus subtilis)
chain: MNEQIPHDKSLDNSLTLLKEGYLFIKNRTERYNSDLFQARLLGKNFICMTGAEAAKVFYDTDRFQRQNALPKRVQKSLFGVNAIQGMDGSAHIHRKMLFLSLMTPPHQKRLAELMTEEWKAAVTRWEKADEVVLFEEAKEILCRVACYWAGVPLKETEVKERADDFIDMVDAFGAVGPRHWKGRRARPRAEEWIEVMIEDARAGLLKTTSGTALHEMAFHTQEDGSQLDSRMAAIELINVLRPIVAISYFLVFSALALHEHPKYKEWLRSGNSREREMFVQEVRRYYPFGPFLGALVKKDFVWNNCEFKKGTSVLLDLYGTNHDPRLWDHPDEFRPERFAEREENLFDMIPQGGGHAEKGHRCPGEGITIEVMKASLDFLVHQIEYDVPEQSLHYSLARMPSLPESGFVMSGIRRKS
Regarding B2, the α-olefin produced in data set [1] (setting [4]) was 1-heptadecene. Further, the “specific activity for 1-pentadecene formation” value in data set [3] is recorded as “similar”.

B3: CYP152A1 Q85H (protein, UniProt O31440 1-417, looked up, variant Q85H)
Fatty-acid peroxygenase: B2 chain with Q85H
Take B3: the α-olefin produced result in data set [1] (setting [4]) was “capable of carrying out this reaction”. Further, in data set [3], the “specific activity for 1-pentadecene formation” value is recorded as “increased”. Besides, in data set [3] (setting [5]), the “rate of α-hydroxyhexadecanoic acid formation” value is “lowered” and the “rate of β-hydroxyhexadecanoic acid formation” value is recorded as “increased”.

B4: orf_Mpop1292: ORF880 homolog P450 enzyme from Methylobacterium populi, ZP_02200540 (protein, listed as Methylobacterium populi)
chain: MPAAIATHRFRKARTLPREPAPDSTLALLREGYGFIRNRCRRHDSDLFAARLLLSPVICMSGAEAARHFYDGHRFTRRHALPPTSFALIQDHGSVMVLDGAAHLARKAMFLSLVGEEALQRLAGLAERHWREAVSGWARKDTVVLLDEAHRVLTAAVCEWVGLPLGPTEVDARAREFAAMIDGTGAVGPRNWRGHLYRARTERWVRKVIDEIRSGRRDVPPGAARTIAEHQDADGQRLDRTVAGVELINVLRPTVANARYIVFAAMALHDHPHQRAALADGGEAAERFTDEVRRFYPFIPFIGGRVRAPFHFGGHDFREGEWVLMDLYGTNRDPRLWHEPERFDPDRFARETIDPFNMVSHGAGSARDGHRCPGEGITRILLRTLSRQLAATRYTVPPQDLTLDLAHVPARPRSGFVMRAVHAP
B4: in data set [2], the “α-olefin formed from hexadecanoic acid” value is 1-pentadecene.
